Legend:
[1] = biological target: human recombinant DLL3 antigen (human) (UniProt Q9NYJ7); experiment: IRF assay on recombinant human DLL3 coated M-270-carboxy Dynabeads, 10 µg beads
[2] = biological target: CEACAM5 coated on M270-carboxy Dynabeads (UniProt P06731); experiment: IRF assay on CEACAM5-coated M270-carboxy Dynabeads, 333 µg beads
[3] = biological target: CEACAM5 coated on M270-carboxy Dynabeads (UniProt P06731); experiment: IRF assay on CEACAM5-coated M270-carboxy Dynabeads, 33 µg beads
[4] = biological target: CEACAM5 coated on M270-carboxy Dynabeads (UniProt P06731); experiment: IRF assay on CEACAM5-coated M270-carboxy Dynabeads, 100 µg beads

CEACAM5 coated on M270-carboxy Dynabeads, sequence (P06731 35-685 limits assumed): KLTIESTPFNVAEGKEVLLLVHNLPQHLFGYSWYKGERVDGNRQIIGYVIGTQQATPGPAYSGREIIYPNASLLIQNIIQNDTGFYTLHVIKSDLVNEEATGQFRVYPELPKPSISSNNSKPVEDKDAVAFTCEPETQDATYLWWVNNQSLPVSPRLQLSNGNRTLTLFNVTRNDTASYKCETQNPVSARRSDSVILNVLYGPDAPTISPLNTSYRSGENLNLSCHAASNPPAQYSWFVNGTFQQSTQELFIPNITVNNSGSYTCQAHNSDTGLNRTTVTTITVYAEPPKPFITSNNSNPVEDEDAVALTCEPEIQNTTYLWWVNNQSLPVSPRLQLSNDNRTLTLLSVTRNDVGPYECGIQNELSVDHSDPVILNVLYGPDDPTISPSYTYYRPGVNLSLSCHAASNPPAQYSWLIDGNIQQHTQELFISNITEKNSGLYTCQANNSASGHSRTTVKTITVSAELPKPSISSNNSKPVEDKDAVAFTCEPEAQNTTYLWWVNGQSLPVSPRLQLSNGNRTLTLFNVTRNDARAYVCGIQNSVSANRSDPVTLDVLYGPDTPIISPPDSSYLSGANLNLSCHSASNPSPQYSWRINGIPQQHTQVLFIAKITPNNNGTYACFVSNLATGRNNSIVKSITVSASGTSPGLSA
human recombinant DLL3 antigen (human), sequence (Q9NYJ7 27-492 limits assumed): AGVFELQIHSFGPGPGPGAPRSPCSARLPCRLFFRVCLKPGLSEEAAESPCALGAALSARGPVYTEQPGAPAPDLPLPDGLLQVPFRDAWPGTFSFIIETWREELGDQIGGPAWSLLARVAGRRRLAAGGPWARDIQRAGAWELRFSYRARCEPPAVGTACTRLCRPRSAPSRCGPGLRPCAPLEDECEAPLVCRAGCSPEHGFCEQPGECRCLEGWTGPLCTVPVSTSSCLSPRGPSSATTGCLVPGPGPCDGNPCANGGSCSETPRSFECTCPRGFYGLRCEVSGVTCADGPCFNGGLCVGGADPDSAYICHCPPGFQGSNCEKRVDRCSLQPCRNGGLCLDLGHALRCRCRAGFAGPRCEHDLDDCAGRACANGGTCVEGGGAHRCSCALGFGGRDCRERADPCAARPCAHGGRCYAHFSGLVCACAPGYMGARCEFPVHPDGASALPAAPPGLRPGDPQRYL

Row | maximum binding (IRF) [1] [%] | IRF (immunoreactive fraction) [2] [%] | IRF (immunoreactive fraction) [3] [%] | IRF (immunoreactive fraction) [4] [%] | Substance
1 | 86 | – | – | – | Ac-225-macropa-Rovalpituzumab (antibody)
2 | – | 97 | 43 | 88 | Ac-225-macropa-Labetuzumab (antibody)

— patent EP4552657A1, “RADIOPHARMACEUTICAL COMPLEXES AND COMBINATIONS” (priority 2023, dated 2025)
